Assay results from the supplement of paper PMC7877785.
± gives the uncertainty stated by the source.

Test: self-splicing fitness, log relative to wild type (ln ratio); higher = more splicing; Tetrahymena group I intron in knt gene, E. coli kanamycin selection, DiMSum; sequences stand for … in CUCUCU…GGAGGGAAAAGUUAUCAGGCAUGCACCUGGUAGCUAGUCUUUAAACCAAUAGAUUGCAUCGGUUUAAAAGGCAAGACCGUCAAAUUGCGGGAAAGGGGUCAACAGCCGUUCAGUACCAAGUCUCAGGGGAAACUUUGAGAUGGCCUUGCAAAGGGUAUGGUAAUAAGCUGACGGACAUGGUCCUAACCACGCAGCCAAGUCCUAAGUCAACAGAUCUUCUGUUGAUAUGGAUGCAGUUCACAGACUAAAUGUCGGUCGGGGAAGAUGUAUUCUUCUCAUAAGAUAUAGUCGGACCUCUCCUUAAUGGGAGCUAGCGGAUGAAGUGAUGCAACACUGGAGCCGCUGGGAACUAAUUUGUAUGCGAAAGUAUAUUGAUUAGUUUUGGAGUACUCGUGGUCG
Procedure, shortened: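 Six replicate transformations of E. coli BL21(DE3) with a pET-22b(+) library were grown overnight at 37°C or 30°C. The library randomised all eight P1ex-region intron nucleotides, the intron lying in the knt kanamycin-resistance gene, and plates were LB agar with or without 25 μg/mL kanamycin plus 100 μg/mL carbenicillin, 50 μM IPTG and 0.2% rhamnose. Pooled colonies were amplicon-sequenced on an Illumina HiSeq 2500, and fitness is the DiMSum error-weighted combination of wild-type-normalised replicate fold changes, kanamycin versus none.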

## ACGCAGCAAUAUUACGUUAU
30 °C
  self-splicing fitness (ln): -3.13 ± 0.12
37 °C
  self-splicing fitness (ln): -2.12 ± 0.15

## ACGGAGCAAUAUUACGAGCA
30 °C
  self-splicing fitness (ln): -3.2 ± 0.34

## ACGGAGCAAUAUUACGAGCG
30 °C
  self-splicing fitness (ln): -2.76 ± 0.28
37 °C
  self-splicing fitness (ln): -1.59 ± 0.2

## ACGGAGCAAUAUUACGCACA
30 °C
  self-splicing fitness (ln): -2.08 ± 0.36
37 °C
  self-splicing fitness (ln): -2.46 ± 0.37

## ACGGAGCAAUAUUACGCAGC
30 °C
  self-splicing fitness (ln): -3.02 ± 0.3

## ACGGAGCAAUAUUACGCCCA
30 °C
  self-splicing fitness (ln): -2.81 ± 0.43
37 °C
  self-splicing fitness (ln): -1.92 ± 0.37

## ACGGAGCAAUAUUACGCGGG
30 °C
  self-splicing fitness (ln): -2.3 ± 0.18
37 °C
  self-splicing fitness (ln): -0.332 ± 0.15

## ACGGAGCAAUAUUACGCUAA
37 °C
  self-splicing fitness (ln): 0.642 ± 0.24

## ACGGAGCAAUAUUACGCUGU
37 °C
  self-splicing fitness (ln): -2.56 ± 0.25

## ACGGAGCAAUAUUACGGGGC
30 °C
  self-splicing fitness (ln): -3.39 ± 0.35
37 °C
  self-splicing fitness (ln): -3.86 ± 0.46

## ACGGAGCAAUAUUACGGUGA
30 °C
  self-splicing fitness (ln): -3.69 ± 0.23
37 °C
  self-splicing fitness (ln): -1.55 ± 0.21

## ACGGAGCAAUAUUACGUAAC
30 °C
  self-splicing fitness (ln): -3.72 ± 0.37
37 °C
  self-splicing fitness (ln): -1.66 ± 0.22

## ACGGAGCAAUAUUACGUGCA
37 °C
  self-splicing fitness (ln): -1.4 ± 0.22

## ACGGAGCAAUAUUACGUGCU
30 °C
  self-splicing fitness (ln): -2.34 ± 0.19

## ACGGAGCAAUAUUACGUGGA
30 °C
  self-splicing fitness (ln): -3.74 ± 0.37
37 °C
  self-splicing fitness (ln): -2.26 ± 0.24

## ACGGAGCAAUAUUACGUUGA
30 °C
  self-splicing fitness (ln): -2.94 ± 0.2
37 °C
  self-splicing fitness (ln): -2.29 ± 0.21

## ACGGAGCAAUAUUACGUUGC
37 °C
  self-splicing fitness (ln): -3.12 ± 0.4

## ACGUAGCAAUAUUACGACCG
30 °C
  self-splicing fitness (ln): -0.218 ± 0.1
37 °C
  self-splicing fitness (ln): 0.0549 ± 0.12

## ACGUAGCAAUAUUACGAGCC
30 °C
  self-splicing fitness (ln): -3.28 ± 0.35
37 °C
  self-splicing fitness (ln): -2.55 ± 0.44

## ACGUAGCAAUAUUACGAGCG
30 °C
  self-splicing fitness (ln): -1.53 ± 0.11
37 °C
  self-splicing fitness (ln): -0.668 ± 0.12

## ACGUAGCAAUAUUACGAUGG
30 °C
  self-splicing fitness (ln): -3.99 ± 0.35
37 °C
  self-splicing fitness (ln): -1.52 ± 0.29

## ACGUAGCAAUAUUACGCACG
30 °C
  self-splicing fitness (ln): -2.31 ± 0.2
37 °C
  self-splicing fitness (ln): -1.98 ± 0.19

## ACGUAGCAAUAUUACGCAUC
30 °C
  self-splicing fitness (ln): -3.3 ± 0.22
37 °C
  self-splicing fitness (ln): -0.518 ± 0.29

## ACGUAGCAAUAUUACGCCUA
30 °C
  self-splicing fitness (ln): -0.946 ± 0.1
37 °C
  self-splicing fitness (ln): -0.412 ± 0.099

## ACGUAGCAAUAUUACGCCUG
30 °C
  self-splicing fitness (ln): -1.29 ± 0.077
37 °C
  self-splicing fitness (ln): 0.00322 ± 0.11

## ACGUAGCAAUAUUACGCGCU
30 °C
  self-splicing fitness (ln): -1.89 ± 0.11
37 °C
  self-splicing fitness (ln): -0.586 ± 0.16

## ACGUAGCAAUAUUACGCUAA
30 °C
  self-splicing fitness (ln): -1.84 ± 0.21
37 °C
  self-splicing fitness (ln): -0.48 ± 0.13

## ACGUAGCAAUAUUACGCUGG
30 °C
  self-splicing fitness (ln): -2.32 ± 0.18
37 °C
  self-splicing fitness (ln): -2.64 ± 0.41

## ACGUAGCAAUAUUACGCUUA
30 °C
  self-splicing fitness (ln): -1.49 ± 0.11
37 °C
  self-splicing fitness (ln): -0.764 ± 0.12

## ACGUAGCAAUAUUACGGACU
30 °C
  self-splicing fitness (ln): -2.66 ± 0.3
37 °C
  self-splicing fitness (ln): -0.29 ± 0.24

## ACGUAGCAAUAUUACGGCUG
30 °C
  self-splicing fitness (ln): -3.21 ± 0.28
37 °C
  self-splicing fitness (ln): -1.83 ± 0.25

## ACGUAGCAAUAUUACGGGAU
30 °C
  self-splicing fitness (ln): -2.67 ± 0.16
37 °C
  self-splicing fitness (ln): -1.97 ± 0.16

## ACGUAGCAAUAUUACGGGCU
30 °C
  self-splicing fitness (ln): -1.15 ± 0.063
37 °C
  self-splicing fitness (ln): -1.18 ± 0.1

## ACGUAGCAAUAUUACGGGUC
30 °C
  self-splicing fitness (ln): -3.56 ± 0.19
37 °C
  self-splicing fitness (ln): -3.42 ± 0.25

## ACGUAGCAAUAUUACGGUAA
30 °C
  self-splicing fitness (ln): -1.67 ± 0.2
37 °C
  self-splicing fitness (ln): -1.39 ± 0.14

## ACGUAGCAAUAUUACGGUGG
30 °C
  self-splicing fitness (ln): -5.08 ± 0.28
37 °C
  self-splicing fitness (ln): -2.92 ± 0.16

## ACGUAGCAAUAUUACGGUUC
30 °C
  self-splicing fitness (ln): -3.18 ± 0.17
37 °C
  self-splicing fitness (ln): -2.49 ± 0.31

## ACGUAGCAAUAUUACGGUUG
30 °C
  self-splicing fitness (ln): -2.6 ± 0.1
37 °C
  self-splicing fitness (ln): -0.902 ± 0.12

## ACGUAGCAAUAUUACGGUUU
30 °C
  self-splicing fitness (ln): -2.03 ± 0.096
37 °C
  self-splicing fitness (ln): -0.957 ± 0.11

## ACGUAGCAAUAUUACGUAAG
30 °C
  self-splicing fitness (ln): -3.51 ± 0.17
37 °C
  self-splicing fitness (ln): -2.45 ± 0.22

## ACGUAGCAAUAUUACGUAAU
30 °C
  self-splicing fitness (ln): -2.35 ± 0.13
37 °C
  self-splicing fitness (ln): -2.34 ± 0.15

## ACGUAGCAAUAUUACGUCCU
30 °C
  self-splicing fitness (ln): -1.99 ± 0.13
37 °C
  self-splicing fitness (ln): -0.452 ± 0.13

## ACGUAGCAAUAUUACGUCGG
30 °C
  self-splicing fitness (ln): -3.32 ± 0.33
37 °C
  self-splicing fitness (ln): -2.07 ± 0.2

## ACGUAGCAAUAUUACGUCGU
30 °C
  self-splicing fitness (ln): -3.52 ± 0.15
37 °C
  self-splicing fitness (ln): -2.59 ± 0.15
